{"source": "patent US20250283063", "about": "“NOVEL CRISPR-CAS12I SYSTEMS AND USES THEREOF” (HUIDAGENE THERAPEUTICS (SINGAPORE) PTE. LTD., published 2025)", "binders": {"B1": {"name": "TTR.2 crRNA ; TTR OT.1 (ssRNA ; dsDNA)", "RNA": "AUGACUCAGAAAUGUGUCCCCAGUUGACACUAGAAGGGAUAUACAAAGUGGA", "DNA 1": "TTTGTAGAAGGGATATAGAAAGTATC", "DNA 2": "GATACTTTCTATATCCCTTCTACAAA"}}, "key": {"hfCas12Max (v6.3)": {"molecular_target": "T1, hfCas12Max (v6.3) (N243R,E336R,D892R)", "T1 chain": "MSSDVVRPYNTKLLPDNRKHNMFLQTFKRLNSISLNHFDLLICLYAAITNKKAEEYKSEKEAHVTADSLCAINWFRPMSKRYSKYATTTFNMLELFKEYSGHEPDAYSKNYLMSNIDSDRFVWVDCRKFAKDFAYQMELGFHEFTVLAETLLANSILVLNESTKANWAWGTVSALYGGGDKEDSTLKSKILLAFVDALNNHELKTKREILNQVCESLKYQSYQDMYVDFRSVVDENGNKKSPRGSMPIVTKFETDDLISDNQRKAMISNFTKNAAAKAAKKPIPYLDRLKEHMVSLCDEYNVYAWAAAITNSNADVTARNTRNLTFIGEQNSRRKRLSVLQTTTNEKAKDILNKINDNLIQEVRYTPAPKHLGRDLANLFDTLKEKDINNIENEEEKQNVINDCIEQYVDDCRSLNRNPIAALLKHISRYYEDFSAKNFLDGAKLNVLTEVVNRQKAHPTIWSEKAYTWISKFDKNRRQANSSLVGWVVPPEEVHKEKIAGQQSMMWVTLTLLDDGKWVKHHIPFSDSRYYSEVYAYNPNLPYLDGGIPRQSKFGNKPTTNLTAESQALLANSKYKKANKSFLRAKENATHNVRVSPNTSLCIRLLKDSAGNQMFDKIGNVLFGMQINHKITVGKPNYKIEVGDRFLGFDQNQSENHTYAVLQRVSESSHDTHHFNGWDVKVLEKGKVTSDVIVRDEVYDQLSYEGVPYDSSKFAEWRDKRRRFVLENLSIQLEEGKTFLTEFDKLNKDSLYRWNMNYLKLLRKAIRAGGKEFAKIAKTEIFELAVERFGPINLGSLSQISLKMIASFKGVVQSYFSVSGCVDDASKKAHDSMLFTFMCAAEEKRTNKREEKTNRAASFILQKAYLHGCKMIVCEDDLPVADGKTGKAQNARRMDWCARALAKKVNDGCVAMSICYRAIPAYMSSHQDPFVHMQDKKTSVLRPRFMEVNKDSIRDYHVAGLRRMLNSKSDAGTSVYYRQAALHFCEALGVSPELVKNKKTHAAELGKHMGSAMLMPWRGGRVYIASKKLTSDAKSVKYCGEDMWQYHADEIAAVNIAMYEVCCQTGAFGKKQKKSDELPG", "experiment": "cell_activity; PAM TTTG; OT-1", "details": "tags: NLS", "procedure": "(§1) HEK293T cells were cultured in 24-well tissue culture plates according to standard methods for 12 hours, before the reporter and expression plasmids were co-transfected into the cells using standard polyethyleneimine (PEI) transfection. The transfected cells were then cultured at 37° C. under 5% CO₂ for 48 hours. Then the cultured cells were analyzed by flow cytometry for BFP, EGFP, and mCherry fluorescent signals. A “blank” control group was also set up, where only the reporter plasmid was transfected, and no expression plasmid was introduced.\n(§2) A dual plasmid fluorescent reporter system for evaluation of off-target dsDNA cleavage activity (off-target reporter system; referring to “Off-Target Reporter” in FIG. 1B) was established, which was similar to the dual plasmid fluorescent reporter system in Example 6 for evaluation of (on-target) dsDNA cleavage activity, except that the insertion sequence of the EGxxxxFP coding sequence contains an TTR off-target protospacer sequence (one of SEQ ID NOs: 127-129) containing one or more mismatches (bold, underlined) with a TTR-targeting spacer sequence (SEQ ID NO: 130) in the gRNA, rather than containing a TTR on-target protospacer sequence (SEQ ID NO: 130; which is the same as SEQ ID NO: 107 in Example 5); DR-T1 sequence (SEQ ID NO: 451) was used. To save drafting, the on-target protospacer sequence/spacer sequence in Table 7 refer to both the protospacer sequence (a DNA sequence) and the corresponding spacer sequence (an RNA sequence) with any “T” in the sequence when referring to a protospacer sequences standing for “T” and when referring to a such spacer sequence standing for “U”, although the assigned SEQ ID NO: 130 in the sequence listing is annotated as DNA."}, "xCas12i v5.3": {"molecular_target": "T2, xCas12i v5.3 (N243R,D892R)", "T2 chain": "T1 chain with R336E", "experiment": "cell_activity; PAM TTTG; OT-1", "details": "tags: NLS", "procedure": "as §1, §2"}}, "note": "Residue numbers refer to the chain shown, from its start.", "data": [{"binder": "B1", "values": [{"measurement": "activity", "setting": "hfCas12Max (v6.3)", "value": 1.55, "unit": "%"}, {"measurement": "activity", "setting": "xCas12i v5.3", "value": 6.66, "unit": "%"}]}]}
